B1: #39 GPC3A L2K (bispecific antibody)
tandem di-scFv: SYVLTQPPSVSVAPGKTARITCGGNNIGSKSVHWYQQKPGQAPVLVIYYDSDRPSGIPERFSGSNSGNTATLTISRVEAGDEADYYCQVWDSSSDHWVFGGGTKLTVLGSRGGGGSGGGGSGGGGSLEMAQVQLVQSGGGLVHPGGSLRLSCAGSGFTFSSYAMHWVRQAPGKGLEWVSAIGTGGGTYYADSVKGRFTISRDNAKNSLYLQMNSLRAEDTAVYYCARYGRKSIDAWGQGTLVTVSSTSGGGGSDVQLVQSGAEVKKPGASVKVSCKASGYTFTRYTMHWVRQAPGQGLEWIGYINPSRGYTNYADSVKGRFTITTDKSTSTAYMELSSLRSEDTATYYCARYYDDHYCLDYWGQGTTVTVSSGEGTSTGSGGSGGSGGADDIVLTQSPATLSLSPGERATLSCRASQSVSYMNWYQQKPGKAPKRWIYDTSKVASGVPARFSGSGSGTDYSLTINSLEAEDAATYYCQQWSSNPLTFGGGTKVEIKHHHHHH
notes: also called GPC3A-39 L2K
B2: #51 GPC3A L2K (bispecific antibody)
tandem di-scFv: QAVLTQPSSASGAPGQRVTISCTGGSSNIGAGYDVHWYQQLPGTAPKLLIYGNSNRPSGVPDRFSGSKSGTSASLAITGLQAEDEADYYCQSYDSSLSGYVFGTGTKVTVLGSRGGGGSGGGGSGGGGSLEMAQVQLVQSGAEVKKPGSSVKVSCKASGGAFSSYAISWVRQAPGQGLEWMGGIIPIFGTANYAQKFQGRVTITADESTSTAYMELSSLRSEDTAVYYCARMLYLSGRYYWDSWGQGTLVTVSSTSGGGGSDVQLVQSGAEVKKPGASVKVSCKASGYTFTRYTMHWVRQAPGQGLEWIGYINPSRGYTNYADSVKGRFTITTDKSTSTAYMELSSLRSEDTATYYCARYYDDHYCLDYWGQGTTVTVSSGEGTSTGSGGSGGSGGADDIVLTQSPATLSLSPGERATLSCRASQSVSYMNWYQQKPGKAPKRWIYDTSKVASGVPARFSGSGSGTDYSLTINSLEAEDAATYYCQQWSSNPLTFGGGTKVEIKHHHHHH
notes: also called GPC3A-51 L2K
B3: GPC3A-37 L2K (bispecific antibody)
chain: QSVLTQPPSVSAAPGQRVTISCSGTRSNIGSDYVSWYQHLPGTAPKLLVYGDNLRPSGIPDRFSASKSGTSATLGITGLQTGDEADYYCGTWDYTLNGVVFGGGTKLTVLGSRGGGGSGGGGSGGGGSLEMAQVQLVESGGGLVQPGGSLRLSCAASGFTFSSYAMSWVRQAPGKGLEWVSVIYSGGSSTYYADSVKGRFTISRDNSKNTLYLQMNSLRAEDTAVYYCARTSYLNHGDYWGQGTLVTVSSTSGGGGSDVQLVQSGAEVKKPGASVKVSCKASGYTFTRYTMHWVRQAPGQGLEWIGYINPSRGYTNYADSVKGRFTITTDKSTSTAYMELSSLRSEDTATYYCARYYDDHYCLDYWGQGTTVTVSSGEGTSTGSGGSGGSGGADDIVLTQSPATLSLSPGERATLSCRASQSVSYMNWYQQKPGKAPKRWIYDTSKVASGVPARFSGSGSGTDYSLTINSLEAEDAATYYCQQWSSNPLTFGGGTKVEIKHHHHHH
notes: also called anti-CD3/anti-GPC3 BsAb
B4: GPC3A-45 L2K (bispecific antibody)
chain: QSVLTQPPSVSGTPGQRVIISCPGSTSNIGTNTVNWYQQFPGTAPKLLIYSNNQRPSGVPDRFSGSKSGTSASLAISGLQSEDEADYYCAAWDDSLNGVVFGGGTKLTVLGSRGGGGSGGGGSGGGGSLEMAQMQLVQSGGGLVKPGGSLRLSCAASGFTFSDYYMSWIRQAPGKGLEWVSYISSSGSTIYYADSVKGRFTISRDNAKNSLYLQMNSLRAEDTAVYYCARASDLYGDWGQGTLVTVSSTSGGGGSDVQLVQSGAEVKKPGASVKVSCKASGYTFTRYTMHWVRQAPGQGLEWIGYINPSRGYTNYADSVKGRFTITTDKSTSTAYMELSSLRSEDTATYYCARYYDDHYCLDYWGQGTTVTVSSGEGTSTGSGGSGGSGGADDIVLTQSPATLSLSPGERATLSCRASQSVSYMNWYQQKPGKAPKRWIYDTSKVASGVPARFSGSGSGTDYSLTINSLEAEDAATYYCQQWSSNPLTFGGGTKVEIKHHHHHH
B5: GPC3A-55 L2K (bispecific antibody)
chain: QPVLTQPPSVSVAPGKTARITCGGNNIGSKSVHWYQQKPGQAPVLVIYYDSDRPSGIPERFSGSNSGNTATLTISRVEAGDEADYYCQVWDSSSDHYVFGTGTKVTVLGSRGGGGSGGGGSGGGGSLEMAQVQLVQSGAEVKKPGASVKVSCKASGYTFTSYYMHWVRQAPGQGLEWMGIINPSGGSTSYAQKFQGRVTMTRDTSTSTVYMELSSLRSEDTAVYYCARWHGGPYDYWGQGTLVTVSSTSGGGGSDVQLVQSGAEVKKPGASVKVSCKASGYTFTRYTMHWVRQAPGQGLEWIGYINPSRGYTNYADSVKGRFTITTDKSTSTAYMELSSLRSEDTATYYCARYYDDHYCLDYWGQGTTVTVSSGEGTSTGSGGSGGSGGADDIVLTQSPATLSLSPGERATLSCRASQSVSYMNWYQQKPGKAPKRWIYDTSKVASGVPARFSGSGSGTDYSLTINSLEAEDAATYYCQQWSSNPLTFGGGTKVEIKHHHHHH
B6: GPC3A-34 L2K (bispecific antibody)
chain: QPVLTQPPSASGTPGQRVTISCSGSSSNIGSNNVIWYQQLPGAAPKLLIYSNHRRPSGVPDRFSGSRSGTSASLAISGLQSEDEADYYCAAWDDSLDGYLFGTGTKVTVLGSRGGGGSGGGGSGGGGSLEMAQVQLQQWGAGLLKPSETLSLTCAVYGGSFSGYYWSWIRQPPGKGLEWIGEINHSGSTNYNPSLKSRVTISVDTSKNQFSLELSSVTAADTAVYYCARGYGGRFDYWGQGTLVTVSSTSGGGGSDVQLVQSGAEVKKPGASVKVSCKASGYTFTRYTMHWVRQAPGQGLEWIGYINPSRGYTNYADSVKGRFTITTDKSTSTAYMELSSLRSEDTATYYCARYYDDHYCLDYWGQGTTVTVSSGEGTSTGSGGSGGSGGADDIVLTQSPATLSLSPGERATLSCRASQSVSYMNWYQQKPGKAPKRWIYDTSKVASGVPARFSGSGSGTDYSLTINSLEAEDAATYYCQQWSSNPLTFGGGTKVEIKHHHHHH
notes: also called anti-GPC3xCD3 di-scFv derived from GPC3A-34
B7: anti-GPC3 mIgG1 clone A-58 (antibody, V domains shown)
VH: QVQLVQSGADVRKPGASVKVSCKASGYTFASHGISWVRQAPGQGLEWLGWISPYTGNTNYAQKFQGRVTMATDTSTSTAYMELRSLRSDDTAIYYCARGKRTLASCFDYWGQGTLVTVSS
VL: QSVLTQPPSVSVAPGKTARITCGGNNIGSKSVHWYQQKPGQAPVLVVYDDSDRPSGIPERFSGSNSGNTATLTISRVEAGDEADYYCQVWDSSSDHVFGTGTKVTVLG
notes: Fused to mouse IgG1 heavy chain and light chain constant regions; also called GPC3A mIgG1 clone A-58
B8: anti-GPC3 mIgG1 clone A-39 (antibody, V domains shown)
VH: QVQLVQSGGGLVHPGGSLRLSCAGSGFTFSSYAMHWVRQAPGKGLEWVSAIGTGGGTYYADSVKGRFTISRDNAKNSLYLQMNSLRAEDTAVYYCARYGRKSIDAWGQGTLVTVSS
VL: SYVLTQPPSVSVAPGKTARITCGGNNIGSKSVHWYQQKPGQAPVLVIYYDSDRPSGIPERFSGSNSGNTATLTISRVEAGDEADYYCQVWDSSSDHWVFGGGTKLTVLG
notes: also called anti-GPC3 mIgG1 A-39
B9: anti-GPC3 mIgG1 clone A-56 (antibody, V domains shown)
VH: QVQLQQSGAEVKKFGASVKVSCKASGYSFNDYYIHWVRQAPGQGLEWMGWINPNNGDTKYEKKWQGRVTMTRDTSITTAYMELSSLRSDDTAVYYCARFSTHNWWWPTYDYWGQGTLVTVSS
VL: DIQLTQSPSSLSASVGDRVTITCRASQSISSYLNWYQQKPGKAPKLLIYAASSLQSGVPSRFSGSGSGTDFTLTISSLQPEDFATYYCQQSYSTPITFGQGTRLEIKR
notes: Fused to mouse IgG1 heavy chain and light chain constant regions
B10: anti-GPC3 mIgG1 clone A-46 (antibody, V domains shown)
VH: QVQLVQSGAEVKKPGASVTVSCKASGYRFSNYGVSWVRQAPGQGLEWMGWISGSNGNTNYAQKFLGRVTMTTDTSTTTAYMELSSLRSDDTAVYYCARGNRRYYSPIIDPWGQGTLVTVSS
VL: QAVLTQPPSVSGTPGQRVTISCSGSSSNFGSNTVHWYQQVPGTAPKLLIFSNTQRPSEIPDRFSGSKSGTSASLAISGLQSEDEADYYCAAWDDSLTGVVFGGGTKLTVLG
notes: Fused to mouse IgG1 heavy chain and light chain constant regions; also called GPC3A mIgG1 clone A-46

What follows are binders tested against T1, cell surface-bound human GPC3 on GPC3+ HepG2 cells (human, UniProt P51654 25-560, GPI anchor and heparin sulfate side chains, as the filing describes native GPC3) (assay: FACS on GPC3+ HepG2 cells, labelled on the sheet GPC3A L2K against control L2K; control L2K median 93.8; axis PE-A).
T1 construct: Endogenous GPC3 of the HepG2 line; also called Glypican 3; native GPC3
Method: APC-conjugated anti-His tag mouse antibody (R&D Systems) was added in a volume of 100 μl, a 20-fold dilution of 5% FBS in PBS and 0.05% NaN₃ and incubated for 1 hour at 4° C. in the dark, then washed twice with PBS. The cells were fixed in 3-fold dilution of fixation buffer (BioLegend) in PBS in a volume of 150 μl.

First: B1
Second: B2
The “Median : PE-A” value of the first is lower: 6380 for the first, 12200 for the second.

These binders were tested against T1, cell surface-bound human GPC3 on GPC3+ … (assay: apparent Kd from FACS on GPC3+ HepG2 cells).
Method: (§1) APC-conjugated anti-His tag mouse antibody (R&D Systems) was added in a volume of 100 μl, a 20-fold dilution of 5% FBS in PBS and 0.05% NaN₃ and incubated for 1 hour at 4° C. in the dark, then washed twice with PBS. The cells were fixed in 3-fold dilution of fixation buffer (BioLegend) in PBS in a volume of 150 μl. As a separate control, HepG2 cells were also incubated with APC-conjugated anti-His tag mouse antibody (R&D Systems) in the absence of any L2K bispecific antibody.

Going from B3 to B4, the Kd rises from 0.92 nM to 2.4 nM (2.6-fold). The first binds more tightly here.

First: B5
Second: B6
The Kd of the first is 2.3-fold lower: 0.86 nM for the first, 2 nM for the second.

The binders below were run against T2, full-length human GPC3 over-expressed on SK-Hep1-GPC3 cells (human, UniProt P51654 25-560) (assay: FACS, GPC3A L2K on SK-Hep1-GPC3 cells, APC anti-His; same L2K on GPC3-negative SK-Hep1 median 61.6).
T2 construct: also called GPC3 over-expressing SK-Hep1 cells
Method: Cells were then washed once with PBS. APC-conjugated anti-His tag mouse antibody (R&D Systems) was added to the washed cells in a volume of 100 μl, at 20-fold dilution of 5% FBS in PBS and 0.05% NAN₃ and incubated for 1 hour at 4° C. in the dark. The cells were then washed twice with PBS. The cells were fixed in 3-fold dilution of fixation buffer (BioLegend) in PBS in a volume of 150 μl.

Compared with B1, B2 is higher in “Median : APC-A” value: 445 for the first, 677 for the second.

These binders were tested against T1, cell surface-bound human GPC3 on GPC3+ … (assay: FACS titration on GPC3+ HepG2 cells, anti-His detection).
Method: as §1

First: B3
Second: B4
The EC50 of the first is 2.5-fold lower: 0.048 µg/mL for the first, 0.12 µg/mL for the second.

First: B5
Second: B6
The EC50 of the first is 2.4-fold lower: 0.045 µg/mL for the first, 0.11 µg/mL for the second.

Each binder was assayed against T3, biotinylated recombinant human GPC3(560) (human, biotin on the C-terminal BirA substrate peptide ; Biotin on a lysine of the C-terminal BirA substrate peptide, which is not in the letters.) (assay: SPR, Biacore X100, single-cycle kinetics, bt-GPC3(560) captured on chip, 1:1 model).
T3 construct: Made in E. coli BL21 (pET-27b) from inclusion bodies and biotinylated with BirA; also called bt-GPC3(560); soluble bt-GPC3(560) protein
Method: All of the proteins used in the assay were diluted in HBS-E buffer prior to use. Briefly, 5-10 μg/ml of bt-GPC3₍₅₆₀₎ was immobilized onto a sensor chip pre-functionalized with CAPture Reagent and injected onto the flow cell. Affinity of the L2K bispecific antibodies for immobilized antigen was measured by injection of the various bispecific antibodies at 0.3-5 mg/ml with a 90 second association phase followed by a 90 second dissociation phase at a flow rate of 30 μl/min. At the end of each run, the surface of the sensor chip was regenerated using the reagents provided in the Biotin CAPture kit. Binding constants were determined by nonlinear regression analysis using a 1:1 binding model (BIACORE™ X-100 evaluation software, FIGS. 15A and 15B). The association-on-rate-kₒₙ, affinity constant-kₐ, dissociation constant-kd, and equilibrium dissociation constant-Kd were then calculated for each L2K clone (Table 14).

B3 and B4 are within 1.5-fold of each other in Kd: 5.1 nM for the first, 3.5 nM for the second.

First: B5
Second: B6
The Kd of the first is 1.5-fold lower: 2.3 nM for the first, 3.5 nM for the second. The first binds more tightly here.

Going from B3 to B4, the koff falls from 0.00289 s⁻¹ to 0.000455 s⁻¹ (6.4-fold).

B5 and B6 are within 1.5-fold of each other in koff: 0.00161 s⁻¹ for the first, 0.0014 s⁻¹ for the second.

Going from B3 to B4, the kon falls from 567000 M⁻¹ s⁻¹ to 128000 M⁻¹ s⁻¹ (4.4-fold).

First: B5
Second: B6
The kon of the first is 1.8-fold higher: 705000 M⁻¹ s⁻¹ for the first, 400000 M⁻¹ s⁻¹ for the second.

These binders were tested against T1, cell surface-bound human GPC3 on GPC3+ … (assay: FACS, mIgG1 on GPC3-positive HepG2 cells, PE anti-mouse IgG (H and L); control mIgG1 median 93.8).

First: B7
Second: B8
The “Median : PE-A” value of the first is higher: 8030 for the first, 6380 for the second.

Compared with B9, B10 is higher in “Median : PE-A” value: 5630 for the first, 9860 for the second.

Reference: patent publication US20230048360A1 (EUREKA THERAPEUTICS, published 2023)
